Values of other authors, collected in publication PMC4332414.

Target: Collagen type II (UniProt P02458)
Test: surface plasmon resonance

Sequence of Collagen type II (P02458 182-1241): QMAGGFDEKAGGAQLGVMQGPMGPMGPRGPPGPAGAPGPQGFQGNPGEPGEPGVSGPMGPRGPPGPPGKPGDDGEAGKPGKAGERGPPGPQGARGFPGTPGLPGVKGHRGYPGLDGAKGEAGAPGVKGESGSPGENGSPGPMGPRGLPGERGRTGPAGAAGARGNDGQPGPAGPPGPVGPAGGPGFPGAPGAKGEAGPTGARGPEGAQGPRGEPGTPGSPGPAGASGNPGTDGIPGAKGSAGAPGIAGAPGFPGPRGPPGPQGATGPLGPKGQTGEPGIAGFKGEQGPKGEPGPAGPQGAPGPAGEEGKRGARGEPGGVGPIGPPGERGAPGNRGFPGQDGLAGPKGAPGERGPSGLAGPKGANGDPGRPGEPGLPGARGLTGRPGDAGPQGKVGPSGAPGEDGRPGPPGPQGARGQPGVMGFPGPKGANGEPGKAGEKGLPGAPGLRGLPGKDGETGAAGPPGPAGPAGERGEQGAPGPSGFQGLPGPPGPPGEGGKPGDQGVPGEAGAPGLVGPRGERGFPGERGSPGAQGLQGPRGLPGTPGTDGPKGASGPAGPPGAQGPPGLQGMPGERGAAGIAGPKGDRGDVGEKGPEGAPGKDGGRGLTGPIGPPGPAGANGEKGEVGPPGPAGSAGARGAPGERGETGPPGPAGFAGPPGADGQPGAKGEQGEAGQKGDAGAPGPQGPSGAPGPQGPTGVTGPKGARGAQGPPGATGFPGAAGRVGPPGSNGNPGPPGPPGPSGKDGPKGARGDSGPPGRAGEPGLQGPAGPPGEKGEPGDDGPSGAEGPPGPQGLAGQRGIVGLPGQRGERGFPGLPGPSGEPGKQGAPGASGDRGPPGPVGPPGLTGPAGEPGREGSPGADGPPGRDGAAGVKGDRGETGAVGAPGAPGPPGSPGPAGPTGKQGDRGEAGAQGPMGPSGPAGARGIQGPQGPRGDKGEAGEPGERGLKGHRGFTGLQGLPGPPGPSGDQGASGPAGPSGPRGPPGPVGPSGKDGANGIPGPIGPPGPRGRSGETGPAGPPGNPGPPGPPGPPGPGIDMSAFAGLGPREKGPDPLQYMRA
Sequence of DDR2 DS domain (Q16832 30-185): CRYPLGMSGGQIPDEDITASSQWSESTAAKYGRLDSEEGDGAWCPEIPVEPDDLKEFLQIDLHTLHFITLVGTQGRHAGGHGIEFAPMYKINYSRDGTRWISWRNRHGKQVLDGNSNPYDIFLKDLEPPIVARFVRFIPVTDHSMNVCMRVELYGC

Kd: 25 µM
Substance: DDR2 DS domain (from UniProt Q16832)
